The values that follow come from paper PMC6168492, “Human and mouse albumin bind their respective neonatal Fc receptors differently” (Scientific Reports, 2018).

The target of test [1] is T1, wild-type mouse serum albumin with C-terminal GST (mouse, UniProt P07724 25-608).
T1 construct: mouse serum albumin; also called MSA WT; WT MSA; source: HEK293E, transiently transfected, purified from supernatant (GSTrap FF); not shown: GST (Schistosoma japonicum), C-terminal, kept
Briefly: SPR; receptor binding to immobilised albumin at pH 5.5 in the presence of 0.005% Tween-20 instead of 0.05%. The note with it: both partners purified. In general terms: Surface plasmon resonance follows binding to a sensor surface in real time, without labels.

The target of test [2] is T1, wild-type mouse serum albumin with …. Briefly: SPR; Biacore T200; albumin variants amine-coupled on CM5 (~200 or 500 RU); monomeric His-tagged hFcRn or mFcRn injected in serial dilutions; phosphate buffer (177 mM phosphate, 85 mM NaCl, 0.05% Tween 20) pH 5.5, 30 µl/min, 25 °C; 1:1 Langmuir model. The following applies: both partners purified.

T1 sequence (P07724 25-608): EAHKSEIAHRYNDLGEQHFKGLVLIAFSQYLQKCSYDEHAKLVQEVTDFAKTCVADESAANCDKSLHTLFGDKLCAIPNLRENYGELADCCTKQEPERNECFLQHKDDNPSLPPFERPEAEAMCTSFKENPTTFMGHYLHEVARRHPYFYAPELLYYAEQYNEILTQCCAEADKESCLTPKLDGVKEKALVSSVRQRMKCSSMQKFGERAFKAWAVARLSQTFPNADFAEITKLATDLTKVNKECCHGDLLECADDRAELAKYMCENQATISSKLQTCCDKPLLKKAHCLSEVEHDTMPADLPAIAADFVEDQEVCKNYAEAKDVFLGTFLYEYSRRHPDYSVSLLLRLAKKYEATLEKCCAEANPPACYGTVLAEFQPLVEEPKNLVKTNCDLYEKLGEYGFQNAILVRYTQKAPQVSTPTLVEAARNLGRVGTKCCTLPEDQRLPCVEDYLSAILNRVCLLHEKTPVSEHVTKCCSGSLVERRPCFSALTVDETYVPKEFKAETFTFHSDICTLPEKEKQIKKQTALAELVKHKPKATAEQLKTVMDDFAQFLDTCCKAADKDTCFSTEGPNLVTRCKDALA

B1: soluble monomeric His-tagged mouse neonatal Fc receptor (mFcRn) (receptor)
chain: SETRPPLMYHLTAVSNPSTGLPSFWATGWLGPQQYLTYNSLRQEADPCGAWMWENQVSWYWEKETTDLKSKEQLFLEALKTLEKILNGTYTLQGLLGCELASDNSSVPTAVFALNGEEFMKFNPRIGNWTGEWPETEIVANLWMKQPDAARKESEFLLNSCPERLLGHLERGRRNLEWKEPPSMRLKARPGNSGSSVLTCAAFSFYPPELKFRFLRNGLASGSGNCSTGPNGDGSFHAWSLLEVKRGDEHHYQCQVEHEGLAQPLTVDLDSSARSS
b2m: IQKTPQIQVYSRHPPENGKPNILNCYVTQFHPPHIEIQMLKNGKKIPKVEMSDMSFSKDWSFYILAHTEFTPTETDTYACRVKHASMAEPKTVYWDRDM
notes: neonatal Fc receptor heavy chain, mouse, soluble form; beta2-microglobulin, non-covalently associated with the heavy chain; Surmised: the His tag sits on the truncated heavy chain; also called mouse FcRn; the mouse receptor
Usually Kd stands for the free concentration of one partner at which half of the binding sites on the other are occupied at equilibrium, for simple one-to-one binding. A high value points to a looser complex. A word on the koff: it is the first-order rate constant of dissociation. As a reminder, the kon is the second-order rate constant of association. A high value points to faster complex formation. For the molecule B1, in test [1], the “fold change of KD in 0.005% against 0.05% Tween-20” value is 1.7 fold. In test [2], this molecule gave a Kd of 547 nM, a koff of 0.0164 s⁻¹ and a kon of 30000 M⁻¹ s⁻¹.
